Measurements taken from patent US20260224761A1, “DUAL LABELLED COMPOUNDS TARGETING THE PROSTATE SPECIFIC MEMBRANE ANTIGEN” (priority 2023, published 2026).
Like-named read-outs stand apart in the source and are kept apart here. Where a SMILES comes first, the peptide text is derived from it. [ ]: non-standard residue; d: D form. The star is where a group is joined. X1 = O=C(O)CC[C@H](NC(=O)N[C@@H](CCCCNC(=O)CCCCCCC(=O)*)C(=O)O)C(=O)O; d2Nal = N[C@H](Cc1ccc2ccccc2c1)C(=O)O; Mercaptoacetyl = O=C(CS)*

Tests used:
[1] = system: LNCaP xenograft bearing NSG mice; test: Biodistribution in LNCaP xenograft bearing NSG mice; assay type: in vivo
Description: (§1) The biodistribution of [^99mTc]PSMA-HSG, [^99mTc]EuK(SO3)Cy5-mas3 and [^99mTc]EuK(SO3)Cy5(SO3)-mas3 was investigated in LNCaP xenograft bearing NSG mice. […] (0.1 nmol-cohort), respectively.
(§2) To assess the influence of the different ligand designs of [^99mTc]PSMA-HSG and [^99mTc]mas3-(SO3)Cy5(SO3)—EuK on in vivo PSMA-targeting and general pharmacokinetics, their in vivo biodistribution was investigated in LNCaP xenograft bearing NSG mice in two different experimental settings: • A) at 2 h p.i. using a ligand dose of 1 nmol/animal. These conditions were chosen to allow comparability of the data from this study (Table 3) with previous results in a different tumor model (Hensbergen, A. W. et al., J. Nucl. Med., 2020, 61, 234-241). Here, [^99mTc]mas3-Cy5(SO3)—EuK was additionally included as an internal reference to establish the “missing link” between studies. • B) at 6 h p.i. using a ligand dose of 0.1 nmol/animal (Table 4). The latter settings were adapted to a timeline and dosing with more similarity to the clinical situation (surgery at a later time point, microdosing principle). Of note, however, a ligand amount of 0.1 nmol/mouse (extrapolation: 280 nmol/70 kg patient) still exceeds the potentially applicable clinical dose (48 nmol/70 kg patient for a compound with a molecular weight of −2100 g/mol). Nevertheless, it represents a dose level at which significant competition effects between unlabeled precursor and radioligand for PSMA binding sites in tumor tissue are not probable (Eder A. C. et al., J. Nucl. Med., 2021, 62, 1461-1467; Kalidindi T. M. et al., Eur. J. Nucl. Med. Mol. Imaging, 2021, 48, 2642-2651).

[2] = as above; assay type: in vivo; settings: NSG, mouse, in vivo, iv, total radioactivity; for tissue uptake at 6 h: 0.1 nmol/animal; for tissue uptake at 2 h: 1 nmol/animal
Description: as §1, §2

[3] = system: PC346C orthotopic xenografts in Balb/c nude mice; settings: 1 nmol ligand, 2 h p.i.; cited from earlier work
Plasma protein binding = assay type: in vitro ADME; settings: plasma
Description: Quantum yield, molar extinction coefficient and serum protein binding experiments were performed according to previously published procedures (Hensbergen A. W. et al., Dyes and Pigments, 2018, 152, 19-28).

[4] = Lipophilicity, modified shake-flask method; assay type: physicochemical
Description: The lipophilicity of [^99mTc]PSMA-HSG, [^99mTc]EuK(SO3)Cy5-mas3 and [^99mTc]EuK(SO3)Cy5(SO3)-mas3 was determined via a modified shake-flask method as described ([…]. et al., Eur. J. Nuc. Mol. Med. Imaging Res., 2014, 4, 63).

PSMA [5] = biological target: T1, PSMA (Homo sapiens, UniProt Q04609); test: Competitive binding experiments (IC50) using PSMA-expressing LNCaP cells and ([125I]I-BA)EuK as standard radioligand
T1 construct: using PSMA-expressing LNCaP cells and ([^125I]I-BA)EuK as standard radioligand; endogenous in cells; host or cells: LNCaP cells
Description: Competitive binding experiments (IC50) were carried out in accordance with an established protocol ([…]. et al., Eur. J. Nuc. Mol. Med. Imaging Res., 2014, 4, 63) using PSMA-expressing LNCaP cells and ([^125I]I-BA)EuK as standard radioligand.

PSMA [6] = biological target: T1, PSMA; settings: LNCaP cells; reference compounds, assayed under identical conditions (literature cited in table title); # = free mas3-chelator; cited from earlier work

T1 sequence (Q04609 whole entry): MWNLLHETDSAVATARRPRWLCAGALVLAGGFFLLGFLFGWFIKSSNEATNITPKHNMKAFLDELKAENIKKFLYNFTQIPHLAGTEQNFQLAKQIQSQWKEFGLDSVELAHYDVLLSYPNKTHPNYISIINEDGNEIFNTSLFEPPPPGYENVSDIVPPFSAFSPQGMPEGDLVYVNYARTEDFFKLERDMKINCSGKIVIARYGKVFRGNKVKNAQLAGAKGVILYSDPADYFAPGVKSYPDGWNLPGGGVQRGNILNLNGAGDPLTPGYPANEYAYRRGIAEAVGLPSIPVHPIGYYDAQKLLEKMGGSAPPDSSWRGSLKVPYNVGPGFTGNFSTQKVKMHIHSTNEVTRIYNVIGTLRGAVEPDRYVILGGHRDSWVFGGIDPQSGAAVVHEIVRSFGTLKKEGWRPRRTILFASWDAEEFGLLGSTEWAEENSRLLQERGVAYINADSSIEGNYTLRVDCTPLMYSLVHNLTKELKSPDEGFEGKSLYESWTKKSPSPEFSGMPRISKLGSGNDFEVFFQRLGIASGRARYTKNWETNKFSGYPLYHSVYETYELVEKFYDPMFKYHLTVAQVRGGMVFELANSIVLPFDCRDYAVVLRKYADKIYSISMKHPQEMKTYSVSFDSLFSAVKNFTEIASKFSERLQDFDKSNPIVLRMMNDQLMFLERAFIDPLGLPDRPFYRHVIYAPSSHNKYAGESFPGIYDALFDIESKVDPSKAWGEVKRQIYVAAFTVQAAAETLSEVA

For CC1(C)C(/C=C/C=C/C=C2/N(CCCCNC(=O)CCCCNC(=O)[C@@H](CO)NC(=O)[C@@H](CO)NC(=O)[C@@H](CO)NC(=O)CS)c3ccccc3C2(C)C)=[N+](CCCCCC(=O)NCCCC[C@H](NC(=O)N[C@@H](CCC(=O)O)C(=O)O)C(=O)O)c2ccc(S(=O)(=O)[O-])cc21 [[^99mTc]mas3-Cy5(SO3)-EuK, metal not drawn], the “kidney accumulation compared to both ligands containing disulfo-Cy5” value ([1]; 2 h p.i., 1 nmol/animal) was “threefold lower”, the “increase of tumor accumulation over time” value ([1]; 6 h p.i./0.1 nmol versus 2 h p.i./1 nmol) was “only slightly increased” and the tissue uptake at 6 h ([2]; 6 h p.i., read-out: Biodistribution: LNCaP tumor) was 8.1 ± 1.4 %ID/g. For the same molecule, the tissue uptake at 6 h ([2]; 6 h p.i., read-out: Biodistribution: blood) was 0.7 ± 0.1 %ID/g, the tissue uptake at 6 h ([2]; 6 h p.i., read-out: Biodistribution: heart) was 0.3 ± 0.1 %ID/g and the tissue uptake at 6 h ([2]; 6 h p.i., read-out: Biodistribution: intestines) was 9.7 ± 1.1 %ID/g. It also gave a tissue uptake at 6 h ([2]; 6 h p.i., read-out: Biodistribution: kidneys) of 70 ± 22 %ID/g, a tissue uptake at 6 h ([2]; 6 h p.i., read-out: Biodistribution: liver) of 1.7 ± 0.3 %ID/g and a tissue uptake at 6 h ([2]; 6 h p.i., read-out: Biodistribution: lung) of 0.8 ± 0.2 %ID/g. For the same molecule, the tissue uptake at 6 h ([2]; 6 h p.i., read-out: Biodistribution: muscle) was 0.2 ± 0.1 %ID/g, the tissue uptake at 6 h ([2]; 6 h p.i., read-out: Biodistribution: pancreas) was 0.3 ± 0.1 %ID/g and the tissue uptake at 6 h ([2]; 6 h p.i., read-out: Biodistribution: salivary glands) was 8.9 ± 2.1 %ID/g. For the same molecule, the tissue uptake at 6 h ([2]; 6 h p.i., read-out: Biodistribution: spleen) was 1.9 ± 0.6 %ID/g, the tissue uptake at 6 h ([2]; 6 h p.i., read-out: Biodistribution: stomach) was 1.4 ± 0.3 %ID/g and the tissue to tissue ratio at 6 h ([2]; 0.1 nmol/mouse, 6 h p.i., 0.1 nmol, read-out: tumor/kidney ratio) was 0.12 ± 0.04. It also gave a tissue uptake at 2 h ([2]; 2 h p.i., read-out: Biodistribution: LNCaP tumor) of 6.6 ± 2.8 %ID/g, a tissue uptake at 2 h ([2]; 2 h p.i., read-out: Biodistribution: blood) of 0.9 ± 0.1 %ID/g and a tissue uptake at 2 h ([2]; 2 h p.i., read-out: Biodistribution: heart) of 0.4 ± 0.1 %ID/g. It also gave a tissue uptake at 2 h ([2]; 2 h p.i., read-out: Biodistribution: intestines) of 6.3 ± 2.5 %ID/g, a tissue uptake at 2 h ([2]; 2 h p.i., read-out: Biodistribution: kidneys) of 21 ± 4.2 %ID/g and a tissue uptake at 2 h ([2]; 2 h p.i., read-out: Biodistribution: liver) of 1.3 ± 0.5 %ID/g. It also gave a tissue uptake at 2 h ([2]; 2 h p.i., read-out: Biodistribution: lung) of 1.1 ± 0.1 %ID/g, a tissue uptake at 2 h ([2]; 2 h p.i., read-out: Biodistribution: muscle) of 0.2 ± 0.03 %ID/g and a tissue uptake at 2 h ([2]; 2 h p.i., read-out: Biodistribution: pancreas) of 0.3 ± 0.1 %ID/g. For the same molecule, the tissue uptake at 2 h ([2]; 2 h p.i., read-out: Biodistribution: salivary glands) was 1.7 ± 0.3 %ID/g, the tissue uptake at 2 h ([2]; 2 h p.i., read-out: Biodistribution: spleen) was 1.9 ± 0.5 %ID/g and the tissue uptake at 2 h ([2]; 2 h p.i., read-out: Biodistribution: stomach) was 0.5 ± 0.1 %ID/g. For the same molecule, the tissue to tissue ratio at 2 h ([2]; 1 nmol/mouse, 2 h p.i., 1 nmol, read-out: tumor/kidney ratio) was 0.31 ± 0.15, the absolute intestinal uptake [3] was 1.61±0.29 % iD/g and the tumor accumulation [3] was 15.2±2.9 % iD/g. It also gave a fraction unbound (Plasma protein binding; radiolabelled tracer, four tracers compared in this study, read-out: Plasma Protein Binding (%) (converted)) of 0.035 and a logP ([4]; radiolabelled tracer, shake-flask, read-out: lipophilicity [log POW]) of -1.94.

Work on CC1(C)C(/C=C/C=C/C=C2/N(CCCCNC(=O)CCCCCNC(=O)[C@@H](CO)NC(=O)[C@@H](CO)NC(=O)[C@@H](CO)NC(=O)CS)c3ccc(S(=O)(=O)O)cc3C2(C)C)=[N+](CCCCCC(=O)NCCCC[C@H](NC(=O)N[C@@H](CCC(=O)O)C(=O)O)C(=O)O)c2ccc(S(=O)(=O)[O-])cc21 [[^99mTc]mas3-(SO3)Cy5(SO3)-EuK, metal not drawn] yielded a tissue uptake at 2 h ([2]; Biodistribution: LNCaP tumor) of 3.5 ± 1.1 %ID/g, a tissue uptake at 2 h ([2]; Biodistribution: blood) of 0.7 ± 0.1 %ID/g and a tissue uptake at 2 h ([2]; Biodistribution: heart) of 0.3 ± 0.1 %ID/g. It also gave a tissue uptake at 2 h ([2]; Biodistribution: intestines) of 4.2 ± 0.4 %ID/g, a tissue uptake at 2 h ([2]; Biodistribution: kidneys) of 59.2 ± 14.4 %ID/g and a tissue uptake at 2 h ([2]; Biodistribution: liver) of 1 ± 0.4 %ID/g. For the same molecule, the tissue uptake at 2 h ([2]; Biodistribution: lung) was 1.1 ± 0.2 %ID/g, the tissue uptake at 2 h ([2]; Biodistribution: muscle) was 0.2 ± 0.03 %ID/g and the tissue uptake at 2 h ([2]; Biodistribution: pancreas) was 0.3 ± 0.1 %ID/g. The tissue uptake at 2 h ([2]; Biodistribution: salivary glands) was 3.1 ± 0.5 %ID/g, the tissue uptake at 2 h ([2]; Biodistribution: spleen) was 4.3 ± 1.3 %ID/g and the tissue uptake at 2 h ([2]; Biodistribution: stomach) was 0.6 ± 0.1 %ID/g. The “lower PSMA-affinity compared to [99mTc]PSMA-HSG” value (PSMA [5]) was 4.5 fold, the fraction unbound (Plasma protein binding; Plasma Protein Binding (%)) was 0.256 and the logP [4] was -2.99.

CC(=O)SCC(=O)N[C@H](CO)C(=O)N[C@H](CO)C(=O)N[C@H](CO)C(=O)N[C@H](CCCCNC(=O)CCCCCN1\C(=C/C=C/C=C/C2=[N+](C)c3ccc(S(=O)(=O)O)cc3C2(C)C)C(C)(C)c2cc(S(=O)(=O)O)ccc21)C(=O)N[C@H](Cc1ccc(O)cc1)C(=O)N[C@H](Cc1ccc2ccccc2c1)C(=O)N[C@H](CCCCNC(=O)CCCCCCC(=O)NCCCC[C@H](NC(=O)N[C@@H](CCC(=O)O)C(=O)O)C(=O)O)C(=O)O [PSMA-HSG, Ac-mas3-k(Sulfo-Cy5)-γ-nal-k-Sub-EuK] showed an IC50 (PSMA [5]; LNCaP cells, free mas3-chelator, novel compounds) of 29.6 ± 5.6 nM.

In the case of O=C(O)CC[C@H](NC(=O)N[C@@H](CCCCNC(=O)CCCCCCC(=O)NCCCC[C@@H](NC(=O)[C@@H](Cc1ccc2ccccc2c1)NC(=O)[C@@H](Cc1ccc(O)cc1)NC(=O)[C@H](CO)NC(=O)[C@H](CO)NC(=O)[C@H](CO)NC(=O)CS)C(=O)O)C(=O)O)C(=O)O [PSMA-I&S] (Mercaptoacetyl-SSS[dY][d2Nal][dK](X1)-OH), the IC50 (PSMA [6]) is listed as 39.7 ± 1.2 nM.
